± gives the standard deviation of the averaged measurements.
Key:
Saccharomyces cerevisiae [1] = test: protein stability index of tFT-peptide fusion (C-terminal peptide) (PSI (0-1 scale)); higher = more stable (slower turnover)
Experimental: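 MPS profiling in S. cerevisiae of the tFT-X12 degron library: putative degron peptides plus stable controls, 12 aa, fused to the C-terminus of a sfGFP-mCherry timer. Cells are FACS-sorted into 8 mCherry/sfGFP bins and deep-sequenced. PSI runs from 0 (unstable) to 1 (stable). Backgrounds are wild type, das1Δ and doa10Δ at 30 °C, and wild type, das1Δ, cdc34-1 and cdc53-1 at 37 °C; 2-3 technical replicates each.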

Saccharomyces cerevisiae [2] = test: as above; details: genetic background: wild type; temperature: 30 C
[3] = genetic background: cdc34-1, temperature: 37 C
[4] = genetic background: cdc53-1, temperature: 37 C
[5] = genetic background: das1 deletion, temperature: 30 C
[6] = genetic background: das1 deletion, temperature: 37 C
[7] = genetic background: doa10 deletion, temperature: 30 C
[8] = genetic background: wild type, temperature: 30 C
[9] = genetic background: wild type, temperature: 37 C
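Also: PSI is a weighted mean of sequencing reads over stability bins, variants kept only with over 10 reads, mCherry proximal and sfGFP distal, peptide attached via GGGS linker.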

Sequence	protein stability index (Saccharomyces cerevisiae [1]; [3])	protein stability index (Saccharomyces cerevisiae [1]; [4])	protein stability index (Saccharomyces cerevisiae [1]; [5])	protein stability index (Saccharomyces cerevisiae [1]; [6])	protein stability index (Saccharomyces cerevisiae [1]; [7])	protein stability index (Saccharomyces cerevisiae [1]; [8])	protein stability index (Saccharomyces cerevisiae [1]; [9])	protein stability index (Saccharomyces cerevisiae [2])
PFFSSLKYRRDH	0.598 ± 0.07	0.751 ± 0.014	0.6675 ± 0.0032	0.77 ± 0.02	0.117 ± 0.024	0.142 ± 0.023	0.197 ± 0.014	0.237 ± 0.051
CLLWVVWSLLWV	0.346 ± 0.0041	0.432 ± 0.011	0.283 ± 0.035	0.4506 ± 0.0035	0.269 ± 0.0094	0.257 ± 0.034	0.416 ± 0.0074	0.353 ± 0.095
VYCTFLFAYTLP	0.556 ± 0.036	0.591 ± 0.032	0.443 ± 0.015	0.602 ± 0.0074	0.435 ± 0.0053	0.443 ± 0.015	0.59 ± 0.0096	0.483 ± 0.0062
VKVIILYKIIEV	0.353 ± 0.045	0.494 ± 0.044	0.327 ± 0.029	0.5352 ± 0.0045	0.29 ± 0.0094	0.323 ± 0.027	0.549 ± 0.08	0.381 ± 0.038
LLVLRQYFFFFV	0.462 ± 0.026	0.531 ± 0.013	0.468 ± 0.035	0.606 ± 0.017	0.238 ± 0.012	0.224 ± 0.022	0.401 ± 0.011	0.295 ± 0.027
WSVCLLLLGRFC	0.523 ± 0.013	0.604 ± 0.011	0.455 ± 0.026	0.617 ± 0.026	0.347 ± 0.0005	0.381 ± 0.024	0.554 ± 0.026	0.466 ± 0.018
FIPPRTYCLMIG	0.57632 ± 0.00037	0.682 ± 0.0096	0.58 ± 0.0063	0.693 ± 0.011	0.219 ± 0.0046	0.233 ± 0.026	0.297 ± 0.015	0.323 ± 0.024
LSTFFIFLRILR	0.289 ± 0.028	0.218 ± 0.0087	0.324 ± 0.04	0.4436 ± 0.0022	0.517 ± 0.021	0.342 ± 0.028	0.436 ± 0.05	0.367 ± 0.028
KRLALVSCSICG	0.569 ± 0.03	0.6459 ± 0.003	0.446 ± 0.025	0.6239 ± 0.002	0.321 ± 0.028	0.351 ± 0.031	0.583 ± 0.0087	0.4681 ± 0.0043
VCALHSAPLLIF	0.453 ± 0.029	0.484 ± 0.017	0.352 ± 0.034	0.496 ± 0.0065	0.307 ± 0.005	0.362 ± 0.012	0.467 ± 0.00048	0.462 ± 0.023

Source: the supplement of paper PMC10724198
